Reference: the supplement of paper PMC9170038

System: MS2 coat protein
Test: apparent KD of MS2 coat protein; designed switch direction (-1 OFF switch, 1 ON switch): 1; higher = weaker reporter binding
Summary of the method: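 Transcription of designed RNA switches on Illumina chips was done by stalled E. coli RNA polymerase. SNAP-549-labelled MS2 coat protein was then titrated in doubling steps from 0.7 or 1.5 nM to 3 µM, with steps of 0.8–1.5 h at the lowest and 10–20 min at the highest concentration. The per-design median over clusters of curve-fitted normalised fluorescence is reported as apparent KD.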

[1] = Eterna round: R95, input ligand: FMN 200 uM
[2] = Eterna round: R95, input ligand: microRNA oligo, concentration not stated
[3] = Eterna round: R95, input ligand: none
[4] = input ligand: microRNA oligo, concentration not stated

With “UAGAGAGGAAGCGAGGAUAUCGUGUGAGGUACAUGAGGAUCACCCAUGUUUGAUGUUGAGAGAGGCGAGAAGGCGCAGGAGAUAA [JR_SS2_Sub085] (puzzle: Same State 2)” the “apparent KD of MS2 coat protein” value [1] was 31.9 nM, the “apparent KD of MS2 coat protein” value [2] was 32.4 nM and the “apparent KD of MS2 coat protein” value [3] was 34.1 nM.
For “UAGAGAGGAAGCGAGGAUAUCGUGUUAGGUACAUGAGGAUCACCCAUGUUUUAAGUAGAGAUAGGCGAGAAGGCGCAGGAGAAGA [JR_SS2_Sub089] (puzzle: Same State 2)”, the “apparent KD of MS2 coat protein” value [1] was 38 nM, the “apparent KD of MS2 coat protein” value [2] was 20.1 nM and the “apparent KD of MS2 coat protein” value [3] was 28 nM.
In the case of “UAGUGCGUUAGAGGAUAUUCUAAAAAAAAAAAAAAGACAUGAGGAUCACCCAUGUAUGUACAUGGGAAGAAGGCUGAUGUGCUA [Omei SS(NG)2 B] (Eterna round: R96, puzzle: Same State NG 2)”, the “apparent KD of MS2 coat protein” value (input ligand: FMN 200 uM) is reported as 75.9 nM, the “apparent KD of MS2 coat protein” value [4] is reported as 352 nM and the “apparent KD of MS2 coat protein” value (input ligand: none) is reported as 551 nM.
In the case of “UAUAAACAUGAGGAUCACCCAUGUAAUAAUAUGGGAGGAUAUCAGAAUGUAUGUAUGUAAUGAGAAGGCCUAAUAU [Mat - Same State 1 - Mod of Eli - D70] (puzzle: Same State 1)”, the “apparent KD of MS2 coat protein” value [1] is reported as 54.4 nM, the “apparent KD of MS2 coat protein” value [2] is reported as 268 nM and the “apparent KD of MS2 coat protein” value [3] is reported as 1270 nM.
With “UAUAAACAUGAGGAUCACCCAUGUAAUAAUAUGGGAGGAUAUCAGAAUGUAUUUAUUUAAUGAGAAGGCCUAAUAU [Mat - Same State 1 - Mod of Eli - D68] (puzzle: Same State 1)” the “apparent KD of MS2 coat protein” value [1] was 46.4 nM, the “apparent KD of MS2 coat protein” value [2] was 532 nM and the “apparent KD of MS2 coat protein” value [3] was 645 nM.
With “UAUAUUAUGGUAGGAUAUGUAGGAUAUGGCGAGAGCUAAGCUUGGAAGUCACUUCAGCCAGAAGGACAGAAGGACCAUAAUAUU [pwkr ssNG2 2FMN + F9.9] (Eterna round: R96, puzzle: Same State NG 2)” the “apparent KD of MS2 coat protein” value (input ligand: FMN 200 uM) was 16.6 nM, the “apparent KD of MS2 coat protein” value [4] was 127 nM and the “apparent KD of MS2 coat protein” value (input ligand: none) was 216 nM.
With “UAUCGUUUGAUAGGAUAUCGCUAUACAUGAGGAUCACCCAUGUUUACCACGCUGGUUUUUCAUACCGAGAAGGAUUCUGAUGAG [salish99_SSNG02_r04_005] (Eterna round: R96, puzzle: Same State NG 2)” the “apparent KD of MS2 coat protein” value (input ligand: FMN 200 uM) was 36.3 nM, the “apparent KD of MS2 coat protein” value [4] was 33.2 nM and the “apparent KD of MS2 coat protein” value (input ligand: none) was 42.2 nM.
With “UAUGAAUAGCAAGGAUAUUGAUAACAUGAGGAUCACCCAUGUAAUUGAUUGAGAAAGAUUAGUUACAAGAAGGUGCAAUUGAUU [JR_SSNG2_Sub034] (Eterna round: R96, puzzle: Same State NG 2)” the “apparent KD of MS2 coat protein” value (input ligand: FMN 200 uM) was 282 nM, the “apparent KD of MS2 coat protein” value [4] was 441 nM and the “apparent KD of MS2 coat protein” value (input ligand: none) was 311 nM.
With “UAUGACUUACAAGGAUAUUAAUGACAUGAGGAUCACCCAUGUGGCUGUGUAUGUUAGAUAAGCAUUAAGAAGGUGUGCGAGUCU [JR_SSNG2_Sub097] (Eterna round: R96, puzzle: Same State NG 2)” the “apparent KD of MS2 coat protein” value (input ligand: FMN 200 uM) was 30.7 nM, the “apparent KD of MS2 coat protein” value [4] was 23.2 nM and the “apparent KD of MS2 coat protein” value (input ligand: none) was 25.4 nM.
With “UAUUAGAUCCGAGGAUAUCCUUAUUACAAACAUGAGGAUCACCCAUGUAAAGGGAAUGAGUUGUAGGAGAAGGCGGAUUUAGUU [JR_SSNG2_Sub057] (Eterna round: R96, puzzle: Same State NG 2)” the “apparent KD of MS2 coat protein” value (input ligand: FMN 200 uM) was 33.5 nM, the “apparent KD of MS2 coat protein” value [4] was 33 nM and the “apparent KD of MS2 coat protein” value (input ligand: none) was 51 nM.
With “UAUUUAAUCAUAGGAUAUAGUGUGAAAUUUGGACUAGAAGGAUGUAACAUGAGGAUCACCCAUGUGGUAAGUGGGAUACAUUCC [JR_SSNG1_Sub098] (Eterna round: R96, puzzle: Same State NG 1)” the “apparent KD of MS2 coat protein” value (input ligand: FMN 200 uM) was 110 nM, the “apparent KD of MS2 coat protein” value [4] was 75 nM and the “apparent KD of MS2 coat protein” value (input ligand: none) was 117 nM.
With “UCAAGCGUUUGGCUCGUCUUAUGUUUGGUACAUGAGGAUCACCCAUGUUAGGGACGAUCCAGUUAGAUGGAAUUUUG [JR_SHM208A_Sub036] (puzzle: Sensor for hsa-mir-208a)” the “apparent KD of MS2 coat protein” value [1] was 36.5 nM, the “apparent KD of MS2 coat protein” value [2] was 637 nM and the “apparent KD of MS2 coat protein” value [3] was 45.6 nM.
In the case of “UCGGGCGUACUUGCUGACAUGAGGAUCACCCAUGUAAAUGGGAAGGAUAUGGUACCGUUUCGGUACCAGAAGGUCCUGGGUGCU [salish99_SSNG3_r04_309] (Eterna round: R96, puzzle: Same State NG 3)”, the “apparent KD of MS2 coat protein” value (input ligand: FMN 200 uM) is reported as 2270 nM, the “apparent KD of MS2 coat protein” value [4] is reported as 674 nM and the “apparent KD of MS2 coat protein” value (input ligand: none) is reported as 3840 nM.
In the case of “UCGGGCGUACUUGCUGACAUGAGGAUCACCCAUGUAAAUGGGAAGGAUAUGGUUCCGUUUCGGUUCCAGAAGGUCCUGGGUGCU [salish99_SSNG3_r04_311] (Eterna round: R96, puzzle: Same State NG 3)”, the “apparent KD of MS2 coat protein” value (input ligand: FMN 200 uM) is reported as 886 nM, the “apparent KD of MS2 coat protein” value [4] is reported as 1140 nM and the “apparent KD of MS2 coat protein” value (input ligand: none) is reported as 1180 nM.
For “UCGGGCGUACUUGCUGACAUGAGGAUCACCCAUGUCCUUGGGAAGGAUAUGGUUCCGUUUCGGUUCCAGAAGGUCCUGGCUGCU [salish99_SSNG3_r04_317] (Eterna round: R96, puzzle: Same State NG 3)”, the “apparent KD of MS2 coat protein” value (input ligand: FMN 200 uM) was 30.1 nM, the “apparent KD of MS2 coat protein” value [4] was 42.6 nM and the “apparent KD of MS2 coat protein” value (input ligand: none) was 78.2 nM.
